Data on 59 substances can be found in the supplement of paper PMC10598134.

± gives the standard deviation.

The series can be described thus: collision cross section of modified peptide (TIMS, N2, iRT-aligned); higher = larger / more extended gas-phase ion. The gist of the method: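 Synthetic peptide pools (~100 fmol/µL in 2% acetonitrile/0.1% formic acid, iRT standard spiked 1:40) were separated on a 120-min nanoflow C18 gradient at 60 °C. They were analysed on a timsTOF Pro/HT (dda-PASEF, nitrogen, ~2.4 mbar) and identified with MaxQuant. 1/K0 was calibrated with three reference ions and aligned run-wise to the median iRT peptide deviation. Collision cross section came from the Mason-Schamp equation, averaging 1–3 technical replicates of the most abundant feature per charge state.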

Where [1] appears, read: charge state: 2, modification: Formyl.
Where [2] appears, read: charge state: 2, modification: hydroxyisobutyryl.
[3] abbreviates: charge state: 2, modification: Dimethyl (K).
Where [4] appears, read: charge state: 3, modification: Dimethyl (K).
Setting [5] is: charge state: 2, modification: Methyl (K).
Where [6] appears, read: charge state: 3, modification: Methyl (K).
Setting [7] is: charge state: 2, modification: Trimethyl (K).
The mark [8] stands for this setting: charge state: 3, modification: Trimethyl (K).
[9] abbreviates: charge state: 2, modification: Butyryl.
The mark [10] stands for this setting: charge state: 2, modification: Glutarylation.
[11] abbreviates: charge state: 3, modification: Glutarylation.
[12] abbreviates: charge state: 3, modification: Acetyl (K).
The mark [13] stands for this setting: charge state: 2, modification: Biotin.
The mark [14] stands for this setting: charge state: 2, modification: Crotonyl.
Setting [15] is: charge state: 2, modification: Malonyl.
The mark [16] stands for this setting: charge state: 2, modification: Hydroxyproline.
The mark [17] stands for this setting: charge state: 3, modification: Hydroxyproline.
Where [18] appears, read: charge state: 2, modification: Phospho (Y).
Setting [19] is: charge state: 3, modification: Phospho (Y).
Where [20] appears, read: charge state: 3, modification: Biotin.
Where [21] appears, read: charge state: 3, modification: HexNAc (ST).
The mark [22] stands for this setting: charge state: 2, modification: Citrullination (R).
The mark [23] stands for this setting: charge state: 3, modification: Malonyl.
[24] abbreviates: charge state: 3, modification: Citrullination (R).
Where [25] appears, read: charge state: 2, modification: Acetyl (K).

For “DTPTSAGPNSFNKGK [_DTPTSAGPNSFNK(Formyl)GK_]”, the collision cross section under setting [1] amounted to 404 ± 0.2 Å².

Turning to “VNALKNLQVK [_VNALK(hydroxyisobutyryl)NLQVK_]”, under setting [2], the collision cross section is given as 374.85 ± 0.8 Å².

Turning to VNALKNLQVK [_VNALK(Dimethyl (K))NLQVK_], the collision cross section by setting is: under setting [3], 371.74 ± 0.57 Å²; under setting [4], 421.1 Å².

As for SPDEAYAIAKK [_SPDEAYAIAK(Methyl (K))K_], the collision cross section under setting [5] is on record as 372.23 ± 0.47 Å² and the collision cross section under setting [6] was 436.75 ± 4.3 Å².

Turning to “TTGFYSGFSEVAEKR [_TTGFYSGFSEVAEK(Trimethyl (K))R_]”, the collision cross section reads like this: under setting [7], 459.26 Å²; under setting [8], 508.85 ± 1.6 Å².

Consider ASEALLKQLK [_ASEALLK(Dimethyl (K))QLK_], for which the collision cross section by setting is: under setting [3], 366.02 ± 0.28 Å²; under setting [4], 439.24 ± 2.8 Å².

Substance “VDIDAPDVSIEGPDAKLK [_VDIDAPDVSIEGPDAK(Butyryl)LK_]” returned a collision cross section under setting [9] of 472.57 ± 0.49 Å².

Take “SSGPGGQNVNKVNSK [_SSGPGGQNVNK(Gluratylation)VNSK_]”: the collision cross section under setting [10] is 409.46 ± 0.95 Å² and the collision cross section under setting [11] was found to be 446.64 ± 1.9 Å².

Take “IVEKYGYTHLSAGELLR [_IVEK(Acetyl (K))YGYTHLSAGELLR_]”: the collision cross section under setting [12] amounted to 562.4 ± 1.8 Å².

As to TTEETSKPK [_TTEETSK(Methyl (K))PK_], the collision cross section runs as follows: under setting [5], 342.29 ± 0.79 Å²; under setting [6], 431.66 Å².

Substance “SPPLPEHQKIPCNSAEPK [_SPPLPEHQK(Methyl (K))IPCNSAEPK_]” came in with a collision cross section under setting [6] of 546.75 Å².

On to “DDSFLGKLGGTLAR [_DDSFLGK(Formyl)LGGTLAR_]”, for which the collision cross section under setting [1] turned out to be 408.49 ± 1.1 Å².

Substance VNALKNLQVK [_VNALK(Biotin)NLQVK_] displayed a collision cross section under setting [13] of 393.86 ± 0.23 Å².

In the case of “TVSKVDDFLANEAK [_TVSK(Trimethyl (K))VDDFLANEAK_]”, the collision cross section was found to be 424.19 ± 1.1 Å² under setting [7] and 482.88 ± 1.6 Å² under setting [8].

“DSINFLDHINGKK [_DSINFLDHINGK(Methyl (K))K_]” returned a collision cross section under setting [6] of 461.65 ± 2.7 Å².

Take “SGNLTEDDKHNNAK [_SGNLTEDDK(hydroxyisobutyryl)HNNAK_]”: the collision cross section is given as 427.86 ± 0.82 Å² under setting [2] and 488.54 ± 1.1 Å² (charge state: 3, modification: hydroxyisobutyryl).

As to “YEQEHAAIQDKLFQVAK [_YEQEHAAIQDK(Acetyl (K))LFQVAK_]”, under setting [12], the collision cross section worked out at 513.78 ± 1.6 Å².

As for “LQEKVESAQSEQK [_LQEK(Gluratylation)VESAQSEQK_]”, the collision cross section reads like this: under setting [10], 421.97 ± 0.48 Å²; under setting [11], 507.02 ± 1 Å².

Regarding “IVEKYGYTHLSAGELLR [_IVEK(Methyl (K))YGYTHLSAGELLR_]”, the collision cross section under setting [6] came out at 548.39 ± 0.79 Å².

As to “VGVEVPDVNIEGPEGKLK [_VGVEVPDVNIEGPEGK(Crotonyl)LK_]”, the collision cross section under setting [14] is listed as 462.4 ± 1.4 Å².

Consider LEEVTGKLQVAR [_LEEVTGK(Malonyl)LQVAR_], for which the collision cross section under setting [15] came to 393.19 ± 0.021 Å².

On to “VGYPGPSGPLGARGIPGIK [_VGYP(Hydroxyproline)GPSGPLGARGIPGIK_]”, for which the collision cross section reads like this: under setting [16], 446.49 ± 1.1 Å²; under setting [17], 508.9 ± 31 Å².

As to YVHADAPTNK [_Y(Phospho (Y))VHADAPTNK_], the collision cross section by setting is: under setting [18], 354.72 ± 0.065 Å²; under setting [19], 420.4 ± 1 Å².

With “FSAYIKNSNPALNDNLEK [_FSAYIK(Biotin)NSNPALNDNLEK_]”, the collision cross section came to 499.7 ± 0.61 Å² under setting [13] and 526.24 Å² under setting [20].

On to SSDLTDRVK [_S(HexNAc (ST))SDLTDRVK_], for which the collision cross section is, setting by setting: (charge state: 2, modification: HexNAc (ST)) 362.74 ± 0.12 Å²; under setting [21], 449.63 ± 1.1 Å².

FRSGNYR [_FR(Citrullination (R))SGNYR_] registered a collision cross section under setting [22] of 327.94 ± 2.8 Å².

Consider “ALLQAKASGK [_ALLQAK(Gluratylation)ASGK_]”, for which, under setting [10], the collision cross section is recorded as 353.63 ± 0.71 Å².

For “SGKFTQQDIDEAK [_SGK(Malonyl)FTQQDIDEAK_]”, the collision cross section under setting [15] stood at 410.91 ± 0.58 Å².

For “LEENHYNTYISK [_LEENHYNTY(Phospho (Y))ISK_]”, the collision cross section reads like this: under setting [18], 422.15 ± 0.06 Å²; under setting [19], 477.33 ± 1 Å².

Consider “LFVGGIKEDTEEHHLR [_LFVGGIK(Butyryl)EDTEEHHLR_]”, for which the collision cross section under setting [9] is recorded as 500.41 ± 0.28 Å² and the collision cross section (charge state: 3, modification: Butyryl) is 545.89 ± 1.3 Å².

“FSAYIKNSNPALNDNLEK [_FSAYIK(Malonyl)NSNPALNDNLEK_]”: the collision cross section is, setting by setting: under setting [15], 479.79 ± 4.5 Å²; under setting [23], 527.7 ± 2.3 Å².

Regarding “ASEALLKQLK [_ASEALLK(Trimethyl (K))QLK_]”, the collision cross section reads like this: under setting [7], 371.28 ± 0.027 Å²; under setting [8], 439.12 ± 1.8 Å².

On to “AVPSSPAGSAARGR [_AVPSSPAGSAAR(Citrullination (R))GR_]”, for which the collision cross section reads like this: under setting [22], 365.96 ± 0.94 Å²; under setting [24], 481.37 ± 0.56 Å².

Turning to PATSYVR [_PATSY(Phospho (Y))VR_], the collision cross section under setting [18] amounted to 328.8 ± 0.068 Å².

As to “FIHQQPQSSSPVYGSSAK [_FIHQQPQSSSPVYGS(HexNAc (ST))SAK_]”, the collision cross section under setting [21] turned out to be 528.58 ± 0.18 Å².

In turn, “GPPGPAGPSGESR [_GPP(Hydroxyproline)GPAGPSGESR_]” gave a collision cross section under setting [16] of 344.62 ± 1.9 Å².

For TSYAQHQQVR [_TSY(Nitro (Y))AQHQQVR_], the collision cross section runs as follows: (charge state: 2, modification: Nitro (Y)) 366.98 ± 0.94 Å²; (charge state: 3, modification: Nitro (Y)) 458.71 ± 1.2 Å².

Substance “AAINQKLIETGER [_AAINQK(Acetyl (K))LIETGER_]” yielded a collision cross section under setting [25] of 403.07 ± 1 Å².

ITGKNQVTATK [_ITGK(Methyl (K))NQVTATK_]: the collision cross section is on record as 372.71 ± 1.1 Å² under setting [5] and 447.83 ± 5.1 Å² under setting [6].

Under setting [22], “FGRGTGLTQPSQR [_FGR(Citrullination (R))GTGLTQPSQR_]” came in with a collision cross section of 390.81 ± 0.16 Å².

“DAIHFYNKSLAEHR [_DAIHFYNK(Methyl (K))SLAEHR_]”: the collision cross section reads like this: under setting [5], 441.67 Å²; under setting [6], 502.11 ± 2.1 Å².

With DYGNSPLHR [_DY(Phospho (Y))GNSPLHR_], the collision cross section is given as 345.01 ± 0.066 Å² under setting [18] and 444.49 Å² under setting [19].

DVNAAIAAIKTK [_DVNAAIAAIK(Malonyl)TK_]: the collision cross section under setting [15] is reported as 406.2 ± 0.59 Å².

“VSPASSVDSNIPSSQGYKK [_VSPASSVDSNIPSSQGYK(Malonyl)K_]” registered a collision cross section under setting [15] of 465.75 ± 0.51 Å² and a collision cross section under setting [23] of 526.18 ± 21 Å².

For the substance FDDTNPEKEEAK [_FDDTNPEK(Biotin)EEAK_], the collision cross section reads like this: under setting [13], 416.55 ± 1.6 Å²; under setting [20], 504.96 ± 0.34 Å².

With HIGFVYHPTK [_HIGFVY(Phospho (Y))HPTK_], the collision cross section under setting [18] was determined as 384.4 ± 0.77 Å² and the collision cross section under setting [19] was determined as 458.98 ± 1.8 Å².

As for LDHLAEKFR [_LDHLAEK(Succinyl)FR_], the collision cross section reads like this: (charge state: 2, modification: Succinyl) 369.4 ± 0.74 Å²; (charge state: 3, modification: Succinyl) 444.17 ± 3.4 Å².

As for “PANEKATDDYHYEK [_PANEK(Crotonyl)ATDDYHYEK_]”, the collision cross section under setting [14] came out at 442.98 ± 0.0094 Å² and the collision cross section (charge state: 3, modification: Crotonyl) was found to be 509.39 ± 1.3 Å².

In the case of LQLEIDQKK [_LQLEIDQK(Biotin)K_], the collision cross section under setting [13] amounted to 382.89 ± 0.23 Å².

Under setting [22], “GGSAGGRGFFR [_GGSAGGR(Citrullination (R))GFFR_]” yielded a collision cross section of 340.82 ± 0.52 Å².

With SFEDIHQYR [_SFEDIHQY(Phospho (Y))R_], the collision cross section under setting [18] is recorded as 367.21 ± 0.78 Å².

Under setting [13], GGPGSTLSFVGKR [_GGPGSTLSFVGK(Biotin)R_] displayed a collision cross section of 397.77 Å².

As to “VLTANSNPSSPSAAKR [_VLTANSNPSSPSAAK(Malonyl)R_]”, the collision cross section by setting is: under setting [15], 426.78 ± 1.6 Å²; under setting [23], 452.99 Å².

Take “LLIVSTTPYSEKDTK [_LLIVSTTPYSEK(Dimethyl (K))DTK_]”: the collision cross section runs as follows: under setting [3], 459.41 ± 1.9 Å²; under setting [4], 505.24 ± 1.6 Å².

As for FTEYETQVK [_FTEY(Phospho (Y))ETQVK_], the collision cross section under setting [18] is listed as 359.15 ± 0.75 Å².

The substance “ANLEKAQAELVGTADEATR [_ANLEK(Biotin)AQAELVGTADEATR_]” displayed a collision cross section under setting [13] of 492.92 Å².

Regarding “GTISAPGKVVTAAAQAK [_GTISAPGK(Acetyl (K))VVTAAAQAK_]”, the collision cross section is on record as 440.91 ± 2.6 Å² under setting [25] and 515.28 ± 2 Å² under setting [12].

For “GLPGEPGPRGLLGPK [_GLP(Hydroxyproline)GEPGPRGLLGPK_]”, the collision cross section under setting [17] is 506.02 ± 0.37 Å².

Under setting [24], “HTLLRAPAPELLPANVAGR [_HTLLR(Citrullination (R))APAPELLPANVAGR_]” showed a collision cross section of 517.22 ± 8.9 Å².
